From patent US20040063907A1 (published 2004)

T1: purified recombinant C35 protein generated in E. coli (human, UniProt Q9BRT3 1-115, limits assumed)
T1 construct: also called hC35 protein; soluble C35 protein
T1 sequence: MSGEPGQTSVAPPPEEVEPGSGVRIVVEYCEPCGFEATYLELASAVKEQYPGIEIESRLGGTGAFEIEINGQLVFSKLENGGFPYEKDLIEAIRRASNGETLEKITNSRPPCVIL

T2: C35 as expressed by cells or tissue (flow cytometry, immunohistochemistry) (human, UniProt Q9BRT3 2-112)
T2 construct: also called endogenous C35
T2 sequence: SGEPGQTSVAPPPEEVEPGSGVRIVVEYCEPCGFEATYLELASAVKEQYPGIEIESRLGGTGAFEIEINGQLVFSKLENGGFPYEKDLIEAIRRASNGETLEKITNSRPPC

T3: C35 protein, bacterially synthesized (recombinant human C35 purified from E. coli) (human, UniProt Q9BRT3 1-115, limits assumed)
T3 construct: also called hC35; recombinant C35 protein
T3 sequence: T1 sequence

T4: C35 polypeptide, as expressed by human tumor cells and breast tumor tissue (human, UniProt Q9BRT3 2-112)
T4 construct: 115 amino acid protein with a predicted prenylation motif CVIL at 112-115; It was detected on unfixed, non-permeabilized tumor cells and in paraffin sections; also called C35 protein; C35 antigen
T4 sequence: T2 sequence

B1: 1E11 monoclonal antibody (antibody, mouse IgG1, V domains shown)
VH: DVQLQESGPGLVKPSQSLSLTCSVTGYSITSGYFWNWIRQFPGNKLEWMGYISYDGSNNSNPSLKNRISFTRDTSKNQFFLKFNSVTTDDSAAYYCTRGTTGFAYWGQGTLVTVSA
VL: QIVLTQSPAIMSASPGEKVTISCSASSSVSYMNWYQQKPGSSPKPWIYHTSNLASGVPARFSGSGSGTSYSLTISSMEAEDAATYYCQQYHSYPPTFGGGTKLEIK
notes: also called IE11
B2: monoclonal antibody of hybridoma clone 1F2 (antibody, V domains shown)
VH: B1 VH
VL: B1 VL
notes: also called IF2
B3: 1F2 monoclonal antibody (antibody, V domains shown)
VH: B1 VH
VL: B1 VL
notes: Mouse IgG1 kappa; In the VL, one printed codon 'get' was read as gct; also called IF2
B4: monoclonal antibody of hybridoma clone 1E11 (antibody, mouse IgG1, V domains shown)
VH: B1 VH
VL: B1 VL
notes: Mouse IgG1 kappa, immunization BCA34.hC35; See the note of 1F2 for a translation; also called IE11
B5: 1B3 monoclonal antibody (antibody, mouse IgG1, V domains shown)
VH: EVQLQESGPSLVKPSQTLSLTCSVTGDSITSGYWNWIRKFPGNKLEYVGYISYSGGTYYNPSLKSRISITRDTSKNHYYLQLNSVTTEDTATYYCARGAYYGGAFFPYFDVWGAGTTVTVSS
VL: DVQITQSPSFLAASPGETITINCRASKYISKHLVWYQEKPGETKKLLIYSGSTLQSGLPSRFSGSGSGTDFTLTISSLEPEDFAMYYCQQHNEYPLTFGAGTKLELK
notes: Mouse IgG1, tested as hybridoma supernatant
B6: 3E10 monoclonal antibody (antibody, V domains shown)
VH: B5 VH
VL: B5 VL

Tests used:
soluble HLA-B*0702 = soluble HLA-B*0702 (human); assay: fluorescence polarization competition against the fluorescent labeled standard on soluble HLA-B*0702
HLA-A*0201 = HLA-A*0201 (human); assay: fluorescence polarization competition, test peptide at 100 uM against the fluorescent-labeled peptide on HLA-A*0201, from Ymax
[1] = molecular target: T5, Beta galactosidase (negative control protein purified from E. coli) (UniProt P00722 1-1024 = β-galactosidase, limits assumed); assay: ELISA, hybridoma supernatant on coated protein, anti-mouse HRP
T5 construct: also called β-galactosidase; p-galactosidase

[2] = molecular target: T1, purified recombinant C35 protein …; assay: ELISA, hybridoma supernatant on coated C35 protein, anti-mouse HRP
[3] = molecular target: T2, C35 as expressed by cells or tissue …; assay: immunohistochemistry of breast tumour sections
[4] = molecular target: T3, C35 protein, bacterially synthesized …; assay: ELISA screen of hybridoma supernatants on plates coated with C35 protein
[5] = molecular target: T4, C35 polypeptide, as expressed by human …; assay: immunohistochemistry on paraffin sections, affinity purified antibody

T5 sequence (P00722 whole entry): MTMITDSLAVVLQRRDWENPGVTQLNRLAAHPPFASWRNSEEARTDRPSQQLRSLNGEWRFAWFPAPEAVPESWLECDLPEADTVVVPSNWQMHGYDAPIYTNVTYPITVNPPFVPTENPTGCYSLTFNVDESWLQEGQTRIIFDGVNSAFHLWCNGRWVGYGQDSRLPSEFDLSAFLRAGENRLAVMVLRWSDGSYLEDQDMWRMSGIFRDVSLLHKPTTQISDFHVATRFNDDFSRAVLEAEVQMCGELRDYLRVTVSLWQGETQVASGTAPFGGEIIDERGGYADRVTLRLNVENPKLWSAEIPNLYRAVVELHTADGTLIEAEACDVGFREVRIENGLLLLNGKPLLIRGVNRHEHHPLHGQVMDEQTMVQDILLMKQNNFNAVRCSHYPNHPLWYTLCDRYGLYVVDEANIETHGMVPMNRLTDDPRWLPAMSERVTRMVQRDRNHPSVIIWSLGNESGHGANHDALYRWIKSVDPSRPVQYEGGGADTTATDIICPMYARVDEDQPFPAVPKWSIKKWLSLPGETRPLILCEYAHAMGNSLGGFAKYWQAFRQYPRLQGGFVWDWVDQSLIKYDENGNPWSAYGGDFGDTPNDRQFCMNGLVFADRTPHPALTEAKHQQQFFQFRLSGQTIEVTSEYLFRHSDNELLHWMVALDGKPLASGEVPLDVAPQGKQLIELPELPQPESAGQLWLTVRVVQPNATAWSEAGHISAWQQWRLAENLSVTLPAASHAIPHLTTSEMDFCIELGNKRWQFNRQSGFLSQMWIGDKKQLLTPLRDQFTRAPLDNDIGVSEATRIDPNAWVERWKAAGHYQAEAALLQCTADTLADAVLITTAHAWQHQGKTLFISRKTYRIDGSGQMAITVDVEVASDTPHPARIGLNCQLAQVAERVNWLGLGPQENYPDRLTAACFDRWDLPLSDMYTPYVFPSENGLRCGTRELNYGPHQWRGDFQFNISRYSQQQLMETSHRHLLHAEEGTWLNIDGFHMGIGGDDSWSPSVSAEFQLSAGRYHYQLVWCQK

Binder	% inhibition (soluble HLA-B*0702)	% inhibition (HLA-A*0201)	further results
NSRPPAVIL [C35 peptide N107 to L115 (analog with Ala substituted for Cys at 112)]	68.2%	–	–
GAFEIEING (also called GAFEIEING) [C35 peptide G63 to G71]	51.4%	–	–
SGVRIVVEY [C35 peptide S21 to Y29]	–	90.8%	–
KITNSRPPA [C35 peptide K104 to A112 (analog with Ala substituted for Cys at 112)]	69.4%	–	–
FEIEINGQL [C35 peptide F65 to L73]	–	74.8%	–
SVAPPPEEV [C35 peptide S9 to V17]	–	96.9%	–
TYLELASAV [C35 peptide T38 to V46]	–	47.3%	–
ITNSRPPCV [C35 peptide I105 to V113]	–	86.4%	–
GTGAFEIEI [C35 peptide G61 to I69]	–	46.5%	–
EPGQTSVAP [C35 peptide E4 to P12]	54.6%	–	–
B1	–	–	binding result [1]: no binding; binding result [2]: binds
B2	–	–	binding result [3]: binds; binding result [4]: binds
B3	–	–	binding result [1]: no binding; binding result [2]: binds; binding result [5]: binds
B4	–	–	binding result [4]: binds
B5	–	–	binding result [1]: no binding
B6	–	–	binding result [1]: no binding
TGAFEIEIN (also called TGAFEIEIN) [C35 peptide T62 to N70]	38.8%	–	–
ITNSRPPAV [C35 peptide I105 to V113 (analog with Ala substituted for Cys at 112)]	45.2%	–	–
